From patent publication US20250230247A1

How the values were obtained:
[1] = target: human Dectin-1 expressed on cells (isoform not given) (human) (UniProt Q9BXN2)
[2] = target: human Dectin-1 expressed on cells (isoform not given) (human) (UniProt Q9BXN2); experiment: flow cytometry on human monocytes
[3] = target: T1, human Dectin-1 isoform A (human) (UniProt Q9BXN2); experiment: flow cytometry on HEK-Blue hDectin-1a cells
T1 sequence: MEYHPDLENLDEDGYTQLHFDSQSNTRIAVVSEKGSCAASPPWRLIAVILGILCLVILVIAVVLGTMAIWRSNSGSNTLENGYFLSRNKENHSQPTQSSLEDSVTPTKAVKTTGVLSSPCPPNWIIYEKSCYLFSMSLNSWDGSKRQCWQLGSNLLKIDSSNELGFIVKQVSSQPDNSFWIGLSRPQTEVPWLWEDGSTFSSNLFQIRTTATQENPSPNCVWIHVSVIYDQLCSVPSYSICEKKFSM

[4] = target: T1, human Dectin-1 isoform A (human); experiment: flow cytometry on HEK293F hDectin-1a FL cells
[5] = target: human Dectin-1 expressed on cells (isoform not given) (human) (UniProt Q9BXN2); experiment: flow cytometry on human monocytes (summary table)
[6] = target: T1, human Dectin-1 isoform A (human); experiment: flow cytometry on HEK-Blue hDectin-1a cells (summary table)
[7] = target: T1, human Dectin-1 isoform A (human); experiment: flow cytometry on HEK293F hDectin-1a FL cells (summary table)

IFNg secretion in PBMC, immobilized antibody (fold change to isotype) [1]: 1.6
IL6 secretion in PBMC, immobilized antibody (fold change to isotype) [1]: 2.6
TNFa secretion in PBMC, immobilized antibody (fold change to isotype) [1]: 3
EC50 [2]: 0.6 nM
EC50 [3]: 1.2 nM
EC50 [4]: 1.4 nM
EC50 [5]: 0.6 nM
EC50 [6]: 1.2 nM
EC50 [7]: 1.4 nM
B1: commercial anti-Dectin-1 antibody 15E2 (antibody, from a related filing, V domains shown)
VH: QWQLQQSGAELARPGASWKMSCKASGYTFTTYTMHWWKQRPGQGLEWIGYINPSSGYTNYNQKFKDKATLTADKSSSTASMQLSSLTSEDSAWYYCARERAVLVPYAMDYWGQGTSVTVSS
VL: QIVLTQSPAVMSASPGEKWTITCTASSSLSYMHWFQQKPGTSPKLWLYSTSILASGVPTRFSGSGSGTSYSLTISRMEAEDAATYYCQQRSSSPFTFGSGTKLEIK
